Data taken from PMC5077174, “Analysis of the Physiological Activities of Scd6 through Its Interaction with Hmt1” (PLoS ONE, 2016).

Molecular target: T1, GST-Scd6 (S. cerevisiae, UniProt P45978 1-349)
T1 construct: Scd6, S. cerevisiae; source: E. coli BL21 (DE3), purified (glutathione-sepharose beads)
T1 sequence (looked up): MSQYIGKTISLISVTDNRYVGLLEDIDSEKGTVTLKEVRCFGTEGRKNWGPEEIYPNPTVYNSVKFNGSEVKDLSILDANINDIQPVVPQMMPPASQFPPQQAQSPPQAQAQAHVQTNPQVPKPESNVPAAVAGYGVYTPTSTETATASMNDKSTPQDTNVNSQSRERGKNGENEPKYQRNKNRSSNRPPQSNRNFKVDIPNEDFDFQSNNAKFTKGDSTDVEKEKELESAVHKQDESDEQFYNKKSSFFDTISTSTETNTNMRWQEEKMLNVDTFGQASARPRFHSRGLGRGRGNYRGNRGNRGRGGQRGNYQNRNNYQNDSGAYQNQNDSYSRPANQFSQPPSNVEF
Test: pull-down; His6-Hmt1 incubated with GST or GST-Scd6 immobilized on glutathione-sepharose beads for 3 h at 4°C, 5 washes with PBS; Coomassie staining and anti-His immunoblot
Details: both partners purified

- binding result: binds
B1: His6-Hmt1 (natural protein, S. cerevisiae, UniProt P38074 1-348, looked up)
chain: MSKTAVKDSATEKTKLSESEQHYFNSYDHYGIHEEMLQDTVRTLSYRNAIIQNKDLFKDKIVLDVGCGTGILSMFAAKHGAKHVIGVDMSSIIEMAKELVELNGFSDKITLLRGKLEDVHLPFPKVDIIISEWMGYFLLYESMMDTVLYARDHYLVEGGLIFPDKCSIHLAGLEDSQYKDEKLNYWQDVYGFDYSPFVPLVLHEPIVDTVERNNVNTTSDKLIEFDLNTVKISDLAFKSNFKLTAKRQDMINGIVTWFDIVFPAPKGKRPVEFSTGPHAPYTHWKQTIFYFPDDLDAETGDTIEGELVCSPNEKNNRDLNIKISYKFESNGIDGNSRSRKNEGSYLMH
notes: Hmt1, S. cerevisiae; source: E. coli BL21 (DE3), purified (Ni-NTA agarose, imidazole elution, dialyzed)
